B1: Nb22: LRRK2-specific Nanobody, SEQ ID NO: 9 (protein)
VHH: MAQVQLVESGGGLVQAGGSLRLSCAASGRTFSSYTMGWFRQAPGKEREFVAAIRWSGGSTYYADSVKGRFTISRDNAKNTVYLQMNSLKPEDTAVYYCAASDRGGFIATSGGWMDYWGKGTQVTVSS
modifications: Nanobody CA13611
B2: Nb1: LRRK2-specific Nanobody, SEQ ID NO: 1 (protein)
VHH: MAQVQLVESGGGLVQAGGSLRLSCVASGRIFSGNAMGWYRQAPGRQRELVAGITNGGYTNYRQFVKGRFTISRDNAKRTVYLQMNSLKPEDTAVYYCNALDREARQVDYWGQGTQVTVSS
modifications: Nanobody CA12610
B3: Nb6: LRRK2-specific Nanobody, SEQ ID NO: 2 (protein)
VHH: MAQVQLVESGGGLVQAGGSLRLSCAASGSIFSPTAMGWYRQAPGKERELVAGITSGGYTNYRNFARGRFTISRDNAKKTVYLQMNSLNPEDTAVYYCNTLTISWSWGQGTQVTVSS
modifications: Nanobody CA12618
B4: Nb42: LRRK2-specific Nanobody, SEQ ID NO: 6 (protein)
VHH: MAQVQLVESGGGLVQAGGSLRLSCAASGDVNYAVGWFRQAPRKEREFVAAINWRGDNTDYTDSVKGRFTISRDNAKNTVYLQMNSLKPEDTAVYYCAAKSAPYWYSDIAPDYWGQGTQVTVSS
modifications: Nanobody CA14259
B5: Nb23: LRRK2-specific Nanobody, SEQ ID NO: 3 (protein)
VHH: MAQVQLVESGGGLVQAGGSLRLSCAASGRTFSRYTMGWFRQAPGKDREFVARITTSGAVTTYADSAKGRFTISRDNAKNTVYLQMNTLKPEDTAVYYCAAGQGQLSSQSRFVDYWGQGTQVTVSS
modifications: Nanobody CA13612

target: T1, LRRK2 (wild-type) (Homo sapiens, UniProt Q5S007, M2397T/R50H); assay: In vitro peptide phosphorylation (PhosphoSens kinase) assay; format: biochemical; conditions: 25 μM Nb; 10 μM AQT0615 peptide
T1 construct: Full-length human LRRK2 was expressed and purified based on previously developed protocols; SF tag (FLAG-tag + Twin-Strep-tag); made in house; host or cells: HEK 293T
T1 sequence (Q5S007 whole entry R50H/M2397T): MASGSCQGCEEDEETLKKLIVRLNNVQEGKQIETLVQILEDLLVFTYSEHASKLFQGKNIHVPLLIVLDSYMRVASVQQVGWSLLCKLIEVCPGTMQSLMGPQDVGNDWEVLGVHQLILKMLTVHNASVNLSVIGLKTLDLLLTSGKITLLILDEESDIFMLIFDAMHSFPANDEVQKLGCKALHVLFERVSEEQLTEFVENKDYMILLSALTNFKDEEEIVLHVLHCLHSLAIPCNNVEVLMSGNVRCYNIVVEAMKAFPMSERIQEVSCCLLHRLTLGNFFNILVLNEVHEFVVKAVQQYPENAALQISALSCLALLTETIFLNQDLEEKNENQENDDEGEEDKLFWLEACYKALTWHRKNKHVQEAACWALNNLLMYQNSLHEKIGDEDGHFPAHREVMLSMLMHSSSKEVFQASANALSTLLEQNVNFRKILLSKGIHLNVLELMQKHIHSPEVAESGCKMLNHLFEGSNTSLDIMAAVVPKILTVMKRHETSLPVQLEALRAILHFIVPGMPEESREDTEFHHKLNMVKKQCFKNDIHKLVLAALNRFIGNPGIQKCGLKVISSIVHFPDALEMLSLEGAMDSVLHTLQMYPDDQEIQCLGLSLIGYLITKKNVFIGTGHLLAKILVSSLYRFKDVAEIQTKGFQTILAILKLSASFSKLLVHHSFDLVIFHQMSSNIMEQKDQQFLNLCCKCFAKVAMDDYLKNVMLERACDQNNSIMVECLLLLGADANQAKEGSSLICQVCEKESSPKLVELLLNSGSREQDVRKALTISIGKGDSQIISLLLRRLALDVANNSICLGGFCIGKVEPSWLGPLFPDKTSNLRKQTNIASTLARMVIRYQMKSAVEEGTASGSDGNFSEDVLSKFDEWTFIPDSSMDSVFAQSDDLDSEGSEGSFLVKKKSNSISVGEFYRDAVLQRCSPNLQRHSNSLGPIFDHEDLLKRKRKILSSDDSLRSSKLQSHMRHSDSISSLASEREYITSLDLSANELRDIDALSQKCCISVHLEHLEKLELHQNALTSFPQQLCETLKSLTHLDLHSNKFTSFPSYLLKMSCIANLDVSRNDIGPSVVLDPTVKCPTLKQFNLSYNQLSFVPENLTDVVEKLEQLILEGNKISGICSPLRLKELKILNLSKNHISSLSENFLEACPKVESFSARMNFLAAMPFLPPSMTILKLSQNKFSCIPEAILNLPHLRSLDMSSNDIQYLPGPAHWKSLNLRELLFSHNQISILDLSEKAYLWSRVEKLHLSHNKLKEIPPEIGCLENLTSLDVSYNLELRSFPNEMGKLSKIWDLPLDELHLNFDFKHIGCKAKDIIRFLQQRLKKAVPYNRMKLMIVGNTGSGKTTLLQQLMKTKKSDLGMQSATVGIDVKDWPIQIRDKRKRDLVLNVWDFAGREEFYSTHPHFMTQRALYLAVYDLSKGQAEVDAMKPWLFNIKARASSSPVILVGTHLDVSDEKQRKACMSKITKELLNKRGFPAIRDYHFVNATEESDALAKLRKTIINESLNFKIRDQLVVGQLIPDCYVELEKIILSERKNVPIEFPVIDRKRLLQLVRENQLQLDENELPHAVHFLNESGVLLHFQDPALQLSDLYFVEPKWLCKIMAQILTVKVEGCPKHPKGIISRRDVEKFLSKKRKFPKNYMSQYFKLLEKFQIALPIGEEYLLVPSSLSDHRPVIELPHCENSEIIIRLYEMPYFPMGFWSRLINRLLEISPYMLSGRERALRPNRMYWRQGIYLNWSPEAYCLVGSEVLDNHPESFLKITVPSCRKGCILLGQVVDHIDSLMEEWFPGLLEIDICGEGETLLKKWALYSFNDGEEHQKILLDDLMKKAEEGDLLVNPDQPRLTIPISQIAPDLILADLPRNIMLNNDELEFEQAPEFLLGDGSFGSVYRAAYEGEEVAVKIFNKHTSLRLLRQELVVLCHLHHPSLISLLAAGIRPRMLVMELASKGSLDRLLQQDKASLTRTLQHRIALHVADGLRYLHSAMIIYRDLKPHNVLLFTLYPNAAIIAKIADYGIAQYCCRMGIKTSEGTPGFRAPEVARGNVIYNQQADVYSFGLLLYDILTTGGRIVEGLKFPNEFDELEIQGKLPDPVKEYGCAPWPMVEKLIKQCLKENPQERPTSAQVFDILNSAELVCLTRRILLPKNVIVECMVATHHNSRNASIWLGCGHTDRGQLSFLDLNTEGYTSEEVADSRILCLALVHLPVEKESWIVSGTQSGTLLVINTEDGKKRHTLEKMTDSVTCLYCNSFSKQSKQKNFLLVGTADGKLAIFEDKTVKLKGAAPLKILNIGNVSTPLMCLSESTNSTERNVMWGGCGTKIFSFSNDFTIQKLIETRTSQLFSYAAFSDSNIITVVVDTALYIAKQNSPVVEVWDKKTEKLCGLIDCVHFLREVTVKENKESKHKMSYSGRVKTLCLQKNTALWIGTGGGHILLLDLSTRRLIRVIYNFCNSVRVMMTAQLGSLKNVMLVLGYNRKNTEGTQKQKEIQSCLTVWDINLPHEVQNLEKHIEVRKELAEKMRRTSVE
Description: FIGS. 4A and 4B. Modulation of in vitro kinase activity by LRRK2-targeting Nbs. (FIG. 4A) Effect of selected LRRK2-targeting Nbs on LRRK2 kinase activity measured using the fluorescence-based PhosphoSens® Protein Kinase Assay, using the LRRK2-optimized AQT0615 peptide as substrate at a fixed concentration of 10 μM, and in the presence of 1 mM or 0.1 mM ATP, respectively. The influence of the different Nbs at a concentration of 25 μM on the relative kinase activity compared to the control where no Nb was added (“No Nb”) is plotted. […] (FIG. 4B) The influence of the different Nbs (25 μM) on the relative kinase activity compared to the “No-Nb” control is plotted, either in presence of 500 μM GDP (top) or 500 μM GTPγS (bottom). […] Each bar reflects the average (±SD) of three independent measurements.
Hereto, we used the fluorescence-based PhosphoSens® Protein Kinase Assay (AssayQuant Technologies Inc.), using the LRRK2-optimized AQT0615 peptide as substrate at a fixed concentration of 10 μM. The increase in fluorescence (Δexc:360 nm; Δemm:485 nm) due to LRRK2-catalyzed peptide phosphorylation was measured continuously in time under initial rate conditions at an ATP concentration of either 0.1 and 1 mM. Subsequently, the 10 Nbs were added at a final concentration of 25 μM and the effect on the initial rate was determined in triplicate (FIG. 4A). Two negative controls, where either no Nb or an irrelevant Nb was added, were also included. […] These experiments were performed in addition with LRRK2 either in the presence of a large excess (500 μM) of GDP or GTPγS (FIG. 4B), but no significant influence of the nucleotide on the inhibition profile was observed.
The Nb concentration was varied from 200 or 150 μM to 0.006 μM in a two-fold serial dilution, while keeping the peptide and ATP substrate concentrations constant at 10 μM and 1 mM, respectively (FIG. 11A-C).
The influence of the purified Nbs on LRRK2 kinase activity was determined using the PhosphoSens® Protein Kinase Assay (AssayQuant Technologies Inc.) using the optimized LRRK2 AQT0615 peptide as substrate and according to the manufacturers' instructions. The continuous kinase assay was performed in a total volume of 50 μL in a black half area 96 well plate. Each reaction mixture contained 10 μM AQT0615 peptide substrate/probe, either 0.1 mM or 1 mM ATP and 500 μM of either GDP, or GTPγS in a buffer consisting of 50 mM HEPES pH 7.5, 0.1% Brij-35, 50 mM NaCl and 10 mM MgCl2. The reaction was initiated by addition of a final concentration of 80 nM of LRRK2 either in absence or presence of 25 μM Nb. Prior to addition, LRRK2 and the Nbs were pre-incubated for 30 minutes on ice. The LRRK2-catalyzed phosphorylation of the peptide substrate/probe is followed continuously at 30° C. in a plate reader with excitation and emission wavelength of 360 nm and 485 nm respectively. Time traces were corrected by subtracting the “no LRRK2” control. The initial rates were determined from the slope of the linear portion of the curve.
To determine IC50 values the Nb concentration was varied from 150 μM to 0.006 μM using a two-fold serial dilution. In these assays a final LRRK2 concentration of 150 nM and an ATP concentration of 1 mM was used. The relative LRRK2 activity (compared to the “no nanobody” control) was plotted against the logarithmic Nb concentration and fitted on a three-parameter log(inhibitor) vs response equation in the GraphPad Prism software. All time traces were collected in triplicate.

Molecule	effect on in vitro LRRK2 kinase activity
B1	activates the kinase activity of LRRK2 in vitro
B2	very clear significant inhibiting effect
B3	very clear significant inhibiting effect
B4	no inhibitory effect could be observed in vitro
B5	(to a lesser extent) Nb23 (CA13612), have a very clear significant inhibiting effect

target: T2, LRRK2 (Homo sapiens, UniProt Q5S007, M2397T/R50H); assay: Competition ELISA titration; format: binding; conditions: AdoCbl, 250 μM; Nb 450 nM to 0.2 nM
T2 construct: Full-length human LRRK2 was expressed and purified based on previously developed protocols; SF tag (FLAG-tag + Twin-Strep-tag); made in house; host or cells: HEK 293T
T2 sequence (Q5S007 whole entry R50H/M2397T): as above
From the text: LRRK2 was coated in the wells of the ELISA plate and the ELISA signal for a dilution series of the respective Nbs (detected via their C-terminal EPEA-tag) is plotted in function of the Nb concentration. […] A “no antigen control”, where no LRRK2 was coated on the bottom of the well, is also included.
Most currently described LRRK2 inhibitors bind directly to the ATP-binding pocket of the kinase domain. […] Two of the in vitro kinase activity inhibiting Nbs described herein (Nb 1 and Nb6) bind LRRK2 predominantly via interactions with the COR-B domain, thus proposing a novel mechanism of action, and thereby excluding a mechanism of inhibition similar to these previously described LRRK2 kinase inhibitors that all directly interact with the kinase domain. […] To verify and confirm that Nb1, Nb6 and Nb23 bind LRRK2 in a different mode than any known small molecule kinase inhibitor, thus also different that the reported vitamin B12 forms, a competition ELISA titration experiment was performed (FIGS. 17A-17C). In this experimental setup, the ELISA experiment was performed using a fixed concentration of LRRK2 coated on the bottom of the ELISA plate, and using a dilution series of either of the three Nbs ranging from 450 nM to 0.2 nM. Detection of Nb binding in ELISA is performed using their C-terminal EPEA-tag, resulting in a dose-response titration curve reflecting an apparent affinity of the Nbs. […] Additionally, as a positive control, a repetition of the setup was performed in presence of an excess (9 μm) of the corresponding untagged Nb.
The ELISA experiment was performed similar as described above, using a fixed concentration of LRRK2 coated on the bottom of the ELISA plate, and using a 1:4 dilution series of Nb1, Nb6 or Nb23 ranging from 450 nM to 0.2 nM. Detection of Nb binding was performed using the C-terminal EPEA tag of the Nbs as described before, resulting in a dose response titration curve reflecting an apparent affinity of the Nbs. […] A “no antigen control”, where no LRRK2 was coated on the bottom of the well, was also included. The absorbance signal (A405 nm) was read out at different time points and the A405 nm at 0.5 h (Nb6 and Nb23) or 10 h (Nb1) was plotted in function of the Nb concentration.

Molecule	shift of the Nb ELISA titration curve in presence of AdoCbl
B2	no rightward shift is observed
B3	no rightward shift is observed
B5	no rightward shift is observed

same assay, conditions: large excess of MLi-2 (1 μM); Nb 450 nM to 0.2 nM

Molecule	shift of the Nb ELISA titration curve in presence of MLi-2
B2	no rightward shift is observed
B3	no rightward shift is observed
B5	no rightward shift is observed
